Biological target: receptors for CRF on murine pituitary tumor cell line AtT-20 (murine)
Test: cell-based or functional assay

CRF-conjugated dextran-coated and maleimide surface-modified magnetonanoparticles (peptide)
Production of c-AMP (nM): 2 fold
fold decrease in Production of c-AMP (nM): 10 fold
